Columns and labels:
[1] = system: HIV-1 of subtype B (Western type); test: MTT assay neutralization, 17 types of viral strains overall; type: cell-based; details: summary of Table 2
Experimental: Neutralizing activity on 17 types of viral strains including clinically isolated strains was studied (Table 2). For this neutralization experiment, the following MMT assay was applied. As a method, 2×10^3 PM1/CCR5 cells were infected with 100 TCID50 virus in the presence of the antibody in each concentration on a 96-well round-bottom micro culture plate, and the cells were then cultured at 37° C. for 7 days. Thereafter, 100 μl of a culture solution was removed from each well, and 10 μl of an MTT (3-[4,5-dimethylthiazol-2-yl]-2,5-diphenyltetrazolium bromide) solution dissolved in a phosphate-buffered saline (PBS) (7.5 mg/ml) was then added thereto. The obtained mixture was incubated at 37° C. for 3 hours. Thereafter, 100 μl of acidified isopropanol containing 4% Triton X-100 (vol/vol) was added to each well, so as to release formazan crystal. The absorbance (570 nm) was measured with a microplate reader, and the cell survival rate was calculated. This experiment was repeated 2 or 3 times. The antibody concentration necessary for inhibiting 50% virus infection (IC50) was calculated, and the antibody concentration corresponding to such IC50 was indicated with color-coding.
It should be noted that strains, which were not neutralized by the anti-V3 antibody, 0.5γ(1C10), were neutralized by the CD4bs antibodies, 0.5δ(3D6) and 49G2. That is to say, a complementary neutralization was observed.

[2] = system: pseudotyped HIV-1 viruses (envelopes of 4 types of HIV-1 strains); test: Single-round neutralization of pseudotyped viruses, 4 strains overall; type: cell-based; details: 4 types of envelope pseudotyped viruses overall; FIG. 3
From the text: With regard to 20 types of antibodies, their binding activity to the cell surface, the amount of antibody produced, and the like were taken into consideration. As a result, regarding 15 types of antibodies, the number of cells was increased, a culture supernatant was collected and was then filtrated, and a monoclonal antibody was then purified using a protein A column or protein G column (GE Healthcare). The neutralizing activity of the thus purified monoclonal antibody on pseudotyped HIV-1 viruses was examined at an antibody concentrations of 10 μg/ml and 2 μg/ml, using the envelopes of 4 types of HIV-1 strains commonly used in laboratories (FIG. 3). In order to produce such pseudotyped virus, on the day before transfection, 293T cells were dispersed on a 100-mm collagen-coated plate (IWAKI) to a cell concentration of 4×10^6, and they were then cultured at 37° C. overnight. Thereafter, 5 μg of pNL4-3-Luc-E^−R^− or 5 μg of pSG3ΔEnv (Li M. et. al, J. Virol. 79, pp. 10108-10125, 2005), 4.5 μg of an envelope expression vector, and 0.5 μg of a pRSV-REV vector were introduced into the culture using Effectene (QIAGEN), and the obtained mixture was then cultured at 37° C. in 5% CO2. Twenty-four hours after initiation of the culture, a supernatant was recovered and was then pass through a 0.2-μm filter. Thereafter, it was then dispensed and was then conserved at −80° C. The obtained pseudotyped virus was subjected to a p24 Antigen ELISA kit (ZeptoMetrix Co.) to measure the amount of p24 antigen. A single-round neutralization experiment using the pseudotyped virus was carried out as follows. On the day before the experiment, GHOST-hi5 cells or TZM-bl cells were dispersed on a 96-well flat bottom culture plate (Falcon) at a concentration of 2×10^4 cells/200 μl. […] Ten seconds after the addition of the luciferase substrate, fluorescence intensity was measured with a TR477 microplate luminometer (Applied Biosystems) (in the case of GHOST-hi5). […] Thereafter, β-galactosidase activity was measured with the TR477 microplate luminometer. […]

strain 89.6 = test: Single-round neutralization of pseudotyped virus, 89.6; type: cell-based, HIV-1; details: 10 μg/ml and 2 μg/ml, FIG. 3
From the text: (§1) With regard to 20 types of antibodies, their binding activity to the cell surface, the amount of antibody produced, and the like were taken into consideration. As a result, regarding 15 types of antibodies, the number of cells was increased, a culture supernatant was collected and was then filtrated, and a monoclonal antibody was then purified using a protein A column or protein G column (GE Healthcare). The neutralizing activity of the thus purified monoclonal antibody on pseudotyped HIV-1 viruses was examined at an antibody concentrations of 10 μg/ml and 2 μg/ml, using the envelopes of 4 types of HIV-1 strains commonly used in laboratories (FIG. 3). In order to produce such pseudotyped virus, on the day before transfection, 293T cells were dispersed on a 100-mm collagen-coated plate (IWAKI) to a cell concentration of 4×10^6, and they were then cultured at 37° C. overnight. […] Ten seconds after the addition of the luciferase substrate, fluorescence intensity was measured with a TR477 microplate luminometer (Applied Biosystems) (in the case of GHOST-hi5). […] Thereafter, β-galactosidase activity was measured with the TR477 microplate luminometer. […]

gp120 [3] = biological target: T1, gp120 (Human immunodeficiency virus type 1 group M subtype B, UniProt P03378); details: 0.5δ(3D6) 5 μg/ml for 15 minutes versus control antibody 8D11; FIG. 4
Experimental: Thereafter, a supernatant was removed, and 175 μl of a blocking buffer (2% bovine serum albumin; BSA, 0.1% Azide, PBS, pH 7.2) was added to the residue. The obtained mixture was left at rest at room temperature for 30 minutes. Thereafter, the well was washed with an ELISA wash buffer (0.15% Tween20, PBS, pH 7.2) three times, and 50 μl each of monomeric gp120 (gp120-SF2; Austral Biologicals, San Ramon, Calif.) was then added thereto. The obtained mixture was left at rest at room temperature for 2 hours. Thereafter, the resultant was washed with the ELISA wash buffer three times, so as to produce a “gp120-captured plate.” A culture supernatant of B cells was added to this plate, and the mixture was then reacted at room temperature for 2 hours. The resultant was washed with the ELISA wash buffer three times, and 100 μl of anti-human IgG-ALP, which had been diluted by a factor of 1000 with the ELISA buffer, was then added to the resultant. The obtained mixture was left at rest at room temperature for 1 hour. The resultant was washed with the ELISA wash buffer three times. Phosphatase substrate (SIGMA) was dissolved in a substrate buffer (Diethanol amine buffer; pH 9.85), and 100 μl of the obtained solution was then added to each well, followed by leaving the mixture at rest at room temperature for 10 to 30 minutes. Thereafter, the absorbance (405 nm) was measured with a microplate reader. […]

strain JR-FL = test: Single-round neutralization of pseudotyped virus, JR-FL; type: cell-based, HIV-1; details: 10 μg/ml and 2 μg/ml, FIG. 3
From the text: as §1

JR-FL strain = test: MTT assay of combined use on JR-FL strain; type: cell-based; details: combined use with CCR5 inhibitor (maraviroc, MVC); HIV-1JRFL; FIG. 12
Experimental: By combining 0.5δ and 0.5γ in various concentrations, their neutralizing activity on a JR-FL strain was analyzed by an MTT assay. […] In order to analyze such synergistic effect, the analysis method of Chow/Talaley et al. and the 3-dimensional analysis method were applied. […]

[4] = system: HIV-1JR-FL chronically infected cells (PM1/JR-FL); test: FACS binding to functional envelope on infected cell surface; details: for reactivity in the absence of sCD4: absence of sCD4, FIG. 2
Experimental: It has been known that HIV-1 has a functional envelope causing membrane fusion with target cells on viral particles and on the surfaces of chronically infected cells. In order to study whether or not the produced antibody is able to recognize this functional envelope, the binding activity of the antibody to the cell surface of HIV-1JR-FL chronically infected cells (PM1/JR-FL) was examined with a flow cytometer. […] PM1/JR-FL cells (2×10^5) were placed in a test tube. Thereafter, 50 μl of sCD4 that had been diluted with a FACS buffer (2% BSA, 0.02% Azide in PBS; pH 7.23) and adjusted to a concentration of 1 μg/ml, or 50 μl of only the FACS buffer, was added to the test tube. The mixture was reacted for 15 minute. Thereafter, 50 μl of monoclonal antibody diluted with a FACS buffer to a concentration of 1 to 3 μg/ml was then added to the reaction mixture, and the obtained mixture was reacted at room temperature for 45 minutes. The resultant was washed with a FACS buffer two times, and 50 μl of FITC-bound anti-human IgG antibody (Sigma) diluted with a FACS buffer at a ratio of 1:200 was then added to the resultant. The mixture was incubated at 4° C. in a dark place for 30 minutes. Thereafter, the resultant was washed with a FACS buffer two times, and it was then fixed with 0.5 ml of fixing solution {2% (w/v) paraformaldehyde in PBS}. The fixed sample was analyzed with FACSCalibur (Beckton-Dickinson). The incorporated data was analyzed with Cell Quest (Beckton-Dickinson). […] Differing from the reaction with the gp120 monomer, in the case of a functional envelope consisting of a trimer, the binding inhibition of CD4bs antibodies by sCD4 was not observed. On the other hand, with regard to CD4i antibodies, the 4 types of antibodies all had only weak reactivity in the absence of sCD4, but in the presence of sCD4, such reactivity was increased up to the level equivalent to the reactivity of a V3 antibody.

[5] = system: Standard Virus Panels B; SVPB (12 types of pseudotyped viruses); test: Breadth of neutralization on Standard Virus Panels B; type: cell-based, HIV-1
Experimental: The neutralizing activity of the thus purified monoclonal antibody on pseudotyped HIV-1 viruses was examined at an antibody concentrations of 10 μg/ml and 2 μg/ml, using the envelopes of 4 types of HIV-1 strains commonly used in laboratories (FIG. 3). In order to produce such pseudotyped virus, on the day before transfection, 293T cells were dispersed on a 100-mm collagen-coated plate (IWAKI) to a cell concentration of 4×10^6, and they were then cultured at 37° C. overnight. Thereafter, 5 μg of pNL4-3-Luc-E^−R^− or 5 μg of pSG3ΔEnv (Li M. et. al, J. Virol. 79, pp. 10108-10125, 2005), 4.5 μg of an envelope expression vector, and 0.5 μg of a pRSV-REV vector were introduced into the culture using Effectene (QIAGEN), and the obtained mixture was then cultured at 37° C. in 5% CO2. […] Ten seconds after the addition of the luciferase substrate, fluorescence intensity was measured with a TR477 microplate luminometer (Applied Biosystems) (in the case of GHOST-hi5). […] Thereafter, β-galactosidase activity was measured with the TR477 microplate luminometer. Neutralizing activity was calculated in accordance with the expression {1−(t−c)/(n−c)}×100 (t: the fluorescence intensity of a sample; c: the background fluorescence intensity of only cells; n: the fluorescence intensity of a sample with no antibodies). […]

93TH966.8 = test: Neutralization of subtype AE virus 93TH966.8; type: cell-based, HIV-1; details: 93TH966.8, subtype AE; FIG. 11
From the text: (§2) As with the panels of subtype (clade) B viruses (SVPB), the panels of subtype C viruses have also been supplied. […] Thus, it is considered that they are important for the studies of cross-clade neutralization by antibodies.

gp120 [6] = biological target: T1, gp120; details: epitope on gp120: V3L, CD4bs, CD4i
Experimental: Antibodies reacting with gp120 are classified into the following 4 types, depending on the types of reactive epitopes. Specifically, the 4 types are a CD4-binding site (CD4bs), a CD4-induced epitope (CD4i), a third variable loop (V3loop; V3L), and those that cannot be classified into the aforementioned groups (other epitopes). Whether or not an antibody binds to V3L is determined by ELISA using a synthetic peptide having the amino acid sequence of V3L (V3-peptide ELISA). […] On the day before the experiment, 100 μl of a peptide (NNT20) diluted in PBS at a concentration of 5 μg/ml was added to each well of a 96-well polypropyren plate, and it was then left at 4° C. overnight. After washing, 175 μl of a blocking buffer was added to each well, and was incubated at room temperature for 30 minutes. The plate was washed with an ELISA wash buffer three times, and a B cell culture supernatant diluted serially was then added to the wells. The plate was reacted at room temperature for 2 hours. […] After washing the resultant, color was developed using ALP-Substrate, and the absorbance (405 nm) was then measured. […]
On the other hand, soluble CD4 (sCD4; R&D Systems, Inc. Minneapolis, Minn.) exerts completely opposite influences on a CD4bs antibody and a CD4i antibody. […] After washing them, color was developed using ALP-Substrate, and the absorbance (405 nm) was then measured.

SVPC15 = test: Neutralization of subtype C virus panel, SVPC15; type: cell-based, HIV-1; details: compared with a control antibody, FIG. 11
From the text: as §2

93TH976.17 = test: Neutralization of subtype AE virus 93TH976.17; type: cell-based, HIV-1; details: 93TH976.17, subtype AE; FIG. 11
From the text: as §2

[7] = biological target: monomeric gp120 (gp120-SF2) (Human immunodeficiency virus type 1 group M subtype B, UniProt P03378); details: presence or absence of 0.5 μg/ml sCD4; FIG. 1
Experimental: The “gp120-capture ELISA” was applied to screen for the antibody-producing cells having an anti-gp120 activity (J. P. Moore et al., J. Virol. 67, pp. 6136-6151, 1993). […] Thereafter, a supernatant was removed, and 175 μl of a blocking buffer (2% bovine serum albumin; BSA, 0.1% Azide, PBS, pH 7.2) was added to the residue. The obtained mixture was left at rest at room temperature for 30 minutes. Thereafter, the well was washed with an ELISA wash buffer (0.15% Tween20, PBS, pH 7.2) three times, and 50 μl each of monomeric gp120 (gp120-SF2; Austral Biologicals, San Ramon, Calif.) was then added thereto. The obtained mixture was left at rest at room temperature for 2 hours. Thereafter, the resultant was washed with the ELISA wash buffer three times, so as to produce a “gp120-captured plate.” A culture supernatant of B cells was added to this plate, and the mixture was then reacted at room temperature for 2 hours. The resultant was washed with the ELISA wash buffer three times, and 100 μl of anti-human IgG-ALP, which had been diluted by a factor of 1000 with the ELISA buffer, was then added to the resultant. […] Thereafter, the absorbance (405 nm) was measured with a microplate reader.
Utilizing this property, monoclonal antibodies were classified. […] After washing them, color was developed using ALP-Substrate, and the absorbance (405 nm) was then measured.

SVPC13 = test: Neutralization of subtype C virus panel, SVPC13; type: cell-based, HIV-1; details: compared with a control antibody, FIG. 11
From the text: as §2

T1 sequence (P03378 32-509): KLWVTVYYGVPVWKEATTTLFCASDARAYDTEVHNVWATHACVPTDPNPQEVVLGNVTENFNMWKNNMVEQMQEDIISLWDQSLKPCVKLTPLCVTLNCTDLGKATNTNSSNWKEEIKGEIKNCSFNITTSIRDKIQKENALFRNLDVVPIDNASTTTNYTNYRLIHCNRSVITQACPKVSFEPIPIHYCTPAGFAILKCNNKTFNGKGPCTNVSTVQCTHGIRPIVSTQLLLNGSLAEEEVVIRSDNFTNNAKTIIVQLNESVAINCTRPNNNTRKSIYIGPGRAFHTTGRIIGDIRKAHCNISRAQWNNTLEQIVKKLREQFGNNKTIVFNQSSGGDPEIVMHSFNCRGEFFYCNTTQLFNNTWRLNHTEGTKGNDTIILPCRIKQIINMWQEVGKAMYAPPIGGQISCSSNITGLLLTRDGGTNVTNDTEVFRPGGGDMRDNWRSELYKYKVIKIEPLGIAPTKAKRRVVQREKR
Sequence of monomeric gp120 (gp120-SF2) (P03378 32-509): as above

B1: 0.5γ(1C10): human IgG1 κ monoclonal antibody to gp120 V3 loop; VH SEQ ID NO: 1, VL SEQ ID NO: 2; FERM BP-11060 (antibody, listed as Homo sapiens, V domains shown)
VH: EVQLVESGGGLIQPGGSLRLSCAASGFTVSSSSMSWVRQAPEKGLEWVSVVYSGGNTYNADSVKGRFSISRDNSKNTVYLQMNSLRADDTAVYYCARDLGGGDRSSDYWGQGTLVTVSS
VL: DIQLTQSPSSLSASVGDRVTITCRASESINTYLNWYQQRPGKAPKLLIYAASTLQTGVPSRFSGSGSGTLFTLTISSLQPEDLATYYCQQSFSTLPYTLGRGTKVEIKG
notes: human IgG1 κ monoclonal antibody to gp120 V3 loop; FERM BP-11060
- neutralizing activity on various HIV-1 strains, overall [1]: wide range of strong neutralizing activity
- neutralizing activity [2]: strong neutralizing activity
- neutralizing activity (strain 89.6): exhibited a neutralizing activity
- reactivity of biotinylated antibody with gp120 in the presence of 0.5δ (gp120 [3]): significantly enhanced
- neutralizing activity (strain JR-FL): exhibited a neutralizing activity
- combination effect on neutralizing activity (JR-FL strain): synergistic inhibitory effect
- reactivity in the absence of sCD4 [4]: strong reactivity
- viruses whose growth was suppressed 50% or more ([5]; at a concentration of 50 μg/ml): 7/12
- viruses whose growth was suppressed 50% or more ([5]; at a concentration of 150 μg/ml): 10/12

B2: 42F9: IgG1 κ monoclonal antibody to gp120 CD4-binding site; VH SEQ ID NO: 7, VL SEQ ID NO: 8; FERM BP-11022 (antibody, listed as Homo sapiens, V domains shown)
VH: EVQLVESGGGVVRPGGSLRLSCAASGFAFGEYGMSWVRQAPGKGLEWVSGINWNGGSTGYADSVQGRFTTSRDNAKNSLYLQMNSLRAEDTALYYCARDENYDILTGNYYYGMDVWGQGTTVTVSS
VL: DIQLTQSPSSLSASVGDRVTITCRASQSISNYLNWYQQKPGKAPKLLIYAASSLQSGVPSRFSGSGSGTDFTLTISSLQPEDFATFYCQQSHSIPYTFGQGTKLEIKR
- neutralizing activity (93TH966.8): exhibited a neutralizing activity
- neutralizing activity [2]: strong neutralizing activity
- Traget (gp120 [6]): CD4bs
- neutralizing activity (SVPC15): clear neutralizing activity
- neutralizing activity (93TH976.17): exhibited a neutralizing activity
- influence of sCD4 on reactivity with gp120 [7]: suppressed in the presence of sCD4
- binding activity to the infected cell surface ([4]; FIG. 2): had a binding activity
- neutralizing activity (SVPC13): clear neutralizing activity

B3: 5G2: IgG1 κ monoclonal antibody to gp120 V3 loop; VH SEQ ID NO: 3, VL SEQ ID NO: 4; FERM BP-11021 (antibody, listed as Homo sapiens, V domains shown)
VH: EVQLVESGGGVVRPGNSLRLSCAASGIIFSTANLHWLRHVPGKGLEWVAIISYDGHRQYYADLVKGRFTISRDNSKNTLHLQMDGLTSDDTAVYYCAKDGADENNLGPAFDYWGRGTLVTVSS
VL: EIVLTQSPATLSVSPGEGATLSCRASQSISSNLAWYQQKPGQAPRLLIYGASTGATGIPARFSGSGSGTDFTLTISRLEPEDFAIYYCQQYGSLPITFGQGTRLEIKR
notes: IgG1 κ monoclonal antibody to gp120 V3 loop; FERM BP-11021
- neutralizing activity on various HIV-1 strains, overall [1]: equivalent to that of a KD-247 antibody
- neutralizing activity [2]: strong neutralizing activity
- neutralizing activity (strain 89.6): exhibited a neutralizing activity
- neutralizing activity (strain JR-FL): exhibited a neutralizing activity
- combination effect on neutralizing activity (JR-FL strain): synergistic inhibitory effect
- reactivity in the absence of sCD4 [4]: strong reactivity

From US8722861B2, “Monoclonal antibodies that bind to the V3 loop of HIV-1 gp120” (priority 2007, dated 2014)
